Measurements: the Human Domainome abundance scans (Beltran et al. 2025)
± gives the uncertainty stated by the source.

assay: abundance fitness (aPCA) (normalised: wild type 0, dead -1); higher = more abundant; growth selection in yeast, the domain comes from the species named; conditions: Homo sapiens

Substance	abundance fitness
BAG family molecular chaperone regulator 3 I30V, O95817	0.207 ± 0.092
BAG family molecular chaperone regulator 3 I30W, O95817	0.13 ± 0.12
BAG family molecular chaperone regulator 3 K29A, O95817	-0.37 ± 0.12
BAG family molecular chaperone regulator 3 K29C, O95817	-0.369 ± 0.24
BAG family molecular chaperone regulator 3 K29E, O95817	-0.791 ± 0.42
BAG family molecular chaperone regulator 3 K29F, O95817	-0.719 ± 0.45
BAG family molecular chaperone regulator 3 K29G, O95817	-0.531 ± 0.083
BAG family molecular chaperone regulator 3 K29H, O95817	-0.686 ± 0.16
BAG family molecular chaperone regulator 3 K29I, O95817	-0.758 ± 0.38
BAG family molecular chaperone regulator 3 K29L, O95817	-0.376 ± 0.091
BAG family molecular chaperone regulator 3 K29M, O95817	-0.23 ± 0.21
BAG family molecular chaperone regulator 3 K29N, O95817	-0.75 ± 0.43
BAG family molecular chaperone regulator 3 K29P, O95817	-0.598 ± 0.26
BAG family molecular chaperone regulator 3 K29Q, O95817	-0.711 ± 0.28
BAG family molecular chaperone regulator 3 K29R, O95817	-0.17 ± 0.066
BAG family molecular chaperone regulator 3 K29S, O95817	-0.313 ± 0.11
BAG family molecular chaperone regulator 3 K29T, O95817	-0.212 ± 0.16
BAG family molecular chaperone regulator 3 K29V, O95817	-0.266 ± 0.11
BAG family molecular chaperone regulator 3 K29W, O95817	-0.754 ± 0.29
BAG family molecular chaperone regulator 3 L22A, O95817	-0.362 ± 0.17
BAG family molecular chaperone regulator 3 L22C, O95817	0.225 ± 0.16
BAG family molecular chaperone regulator 3 L22D, O95817	-0.753 ± 0.42
BAG family molecular chaperone regulator 3 L22F, O95817	-0.069 ± 0.18

Substance	abundance fitness
BAG family molecular chaperone regulator 3 L22G, O95817	-0.144 ± 0.13
BAG family molecular chaperone regulator 3 L22H, O95817	-0.796 ± 0.37
BAG family molecular chaperone regulator 3 L22I, O95817	-0.271 ± 0.15
BAG family molecular chaperone regulator 3 L22M, O95817	0.023 ± 0.17
BAG family molecular chaperone regulator 3 L22N, O95817	-0.67 ± 0.34
BAG family molecular chaperone regulator 3 L22P, O95817	-0.477 ± 0.23
BAG family molecular chaperone regulator 3 L22Q, O95817	-0.226 ± 0.095
BAG family molecular chaperone regulator 3 L22S, O95817	-0.574 ± 0.11
BAG family molecular chaperone regulator 3 L22T, O95817	0.047 ± 0.17
BAG family molecular chaperone regulator 3 L22V, O95817	0.078 ± 0.068
BAG family molecular chaperone regulator 3 L22W, O95817	-0.464 ± 0.083
BAG family molecular chaperone regulator 3 N16A, O95817	0.423 ± 0.079
BAG family molecular chaperone regulator 3 N16C, O95817	0.113 ± 0.14
BAG family molecular chaperone regulator 3 N16D, O95817	0.008 ± 0.07
BAG family molecular chaperone regulator 3 N16E, O95817	0.658 ± 0.11
BAG family molecular chaperone regulator 3 N16F, O95817	-0.219 ± 0.24
BAG family molecular chaperone regulator 3 N16H, O95817	0.094 ± 0.13
BAG family molecular chaperone regulator 3 N16I, O95817	0.113 ± 0.19
BAG family molecular chaperone regulator 3 N16K, O95817	1.04 ± 0.12
BAG family molecular chaperone regulator 3 N16L, O95817	0.33 ± 0.1
BAG family molecular chaperone regulator 3 N16M, O95817	0.276 ± 0.065
BAG family molecular chaperone regulator 3 N16P, O95817	0.153 ± 0.14
BAG family molecular chaperone regulator 3 N16Q, O95817	0.465 ± 0.17

Substance	abundance fitness
BAG family molecular chaperone regulator 3 N16R, O95817	0.231 ± 0.065
BAG family molecular chaperone regulator 3 N16T, O95817	0.666 ± 0.11
BAG family molecular chaperone regulator 3 N16V, O95817	0.368 ± 0.1
BAG family molecular chaperone regulator 3 N16Y, O95817	0.117 ± 0.1
BAG family molecular chaperone regulator 3 N43A, O95817	-0.331 ± 0.087
BAG family molecular chaperone regulator 3 N43C, O95817	-0.681 ± 0.38
BAG family molecular chaperone regulator 3 N43D, O95817	-0.622 ± 0.31
BAG family molecular chaperone regulator 3 N43G, O95817	-0.531 ± 0.14
BAG family molecular chaperone regulator 3 N43H, O95817	-0.384 ± 0.38
BAG family molecular chaperone regulator 3 N43K, O95817	-0.648 ± 0.24
BAG family molecular chaperone regulator 3 N43L, O95817	-0.629 ± 0.12
BAG family molecular chaperone regulator 3 N43P, O95817	-0.42 ± 0.3
BAG family molecular chaperone regulator 3 N43Q, O95817	-0.435 ± 0.43
BAG family molecular chaperone regulator 3 N43R, O95817	-0.549 ± 0.12
BAG family molecular chaperone regulator 3 N43S, O95817	0.004 ± 0.2
BAG family molecular chaperone regulator 3 N43T, O95817	-0.416 ± 0.085
BAG family molecular chaperone regulator 3 N43V, O95817	-0.418 ± 0.12
BAG family molecular chaperone regulator 3 N43W, O95817	-0.415 ± 0.42
BAG family molecular chaperone regulator 3 N43Y, O95817	-0.366 ± 0.4
BAG family molecular chaperone regulator 3 N50A, O95817	0.249 ± 0.15
BAG family molecular chaperone regulator 3 N50C, O95817	0.032 ± 0.13
BAG family molecular chaperone regulator 3 N50D, O95817	-0.126 ± 0.2
BAG family molecular chaperone regulator 3 N50E, O95817	0.063 ± 0.096

Substance	abundance fitness
BAG family molecular chaperone regulator 3 N50F, O95817	0.181 ± 0.11
BAG family molecular chaperone regulator 3 N50G, O95817	-0.358 ± 0.13
BAG family molecular chaperone regulator 3 N50H, O95817	-0.166 ± 0.19
BAG family molecular chaperone regulator 3 N50I, O95817	0.656 ± 0.23
BAG family molecular chaperone regulator 3 N50K, O95817	-0.176 ± 0.11
BAG family molecular chaperone regulator 3 N50L, O95817	-0.181 ± 0.17
BAG family molecular chaperone regulator 3 N50M, O95817	-0.255 ± 0.086
BAG family molecular chaperone regulator 3 N50P, O95817	-0.353 ± 0.31
BAG family molecular chaperone regulator 3 N50Q, O95817	-0.176 ± 0.1
BAG family molecular chaperone regulator 3 N50R, O95817	-0.034 ± 0.13
BAG family molecular chaperone regulator 3 N50S, O95817	-0.26 ± 0.085
BAG family molecular chaperone regulator 3 N50T, O95817	-0.435 ± 0.11
BAG family molecular chaperone regulator 3 N50W, O95817	0.441 ± 0.15
BAG family molecular chaperone regulator 3 N50Y, O95817	0.235 ± 0.16
BAG family molecular chaperone regulator 3 P21A, O95817	0.383 ± 0.085
BAG family molecular chaperone regulator 3 P21C, O95817	0.548 ± 0.1
BAG family molecular chaperone regulator 3 P21D, O95817	-0.124 ± 0.16
BAG family molecular chaperone regulator 3 P21E, O95817	0.307 ± 0.12
BAG family molecular chaperone regulator 3 P21F, O95817	0.097 ± 0.21
BAG family molecular chaperone regulator 3 P21G, O95817	0.43 ± 0.057
BAG family molecular chaperone regulator 3 P21H, O95817	-0.103 ± 0.26
BAG family molecular chaperone regulator 3 P21K, O95817	0.439 ± 0.059
